Test results published in article doi:10.1101/2020.08.02.233007 (bioRxiv, 2020).
Where a chain is given by its changes, count along the chain named. Names may count otherwise. One block for each binder: values may come before it.

How the values were obtained:
[1] = biological target: T1, recombinant full-length UVR8^W285A from Sf9 cells (Arabidopsis), Q9FN03; experiment: SEC; details: remark: other sources report otherwise
T1 chain: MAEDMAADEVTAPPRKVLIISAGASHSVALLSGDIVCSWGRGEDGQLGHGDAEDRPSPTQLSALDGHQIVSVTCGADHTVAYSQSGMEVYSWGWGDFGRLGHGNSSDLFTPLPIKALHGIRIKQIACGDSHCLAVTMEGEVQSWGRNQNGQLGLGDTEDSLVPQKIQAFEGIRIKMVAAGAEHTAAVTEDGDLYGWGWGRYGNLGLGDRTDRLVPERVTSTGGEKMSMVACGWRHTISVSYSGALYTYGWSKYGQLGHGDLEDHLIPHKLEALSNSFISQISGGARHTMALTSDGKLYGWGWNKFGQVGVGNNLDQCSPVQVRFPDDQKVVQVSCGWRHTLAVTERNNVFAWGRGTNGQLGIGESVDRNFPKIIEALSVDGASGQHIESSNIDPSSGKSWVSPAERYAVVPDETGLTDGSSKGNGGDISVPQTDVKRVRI

[2] = biological target: T2, UVR8^W285A overexpressed in uvr8-7/Pro35S:UVR8^W285A seedlings (Arabidopsis thaliana), Q9FN03; experiment: cross-linking; details: remark: other sources report otherwise
T2 chain: T1 chain

cross-linking = biological target: the molecule itself; experiment: cross-linking
[3] = biological target: T3, recombinant full-length UVR8 (wild type) from Sf9 cells (Arabidopsis, UniProt Q9FN03 1-440); experiment: grating-coupled interferometry
T3 sequence: T1 chain with A285W

[4] = biological target: T4, recombinant full-length UVR8^W285A from Sf9 cells (Arabidopsis, UniProt Q9FN03 1-440, W285A); experiment: grating-coupled interferometry
T4 sequence: T1 chain

stoichiometry N [1]: 2
B1: recombinant full-length UVR8^W285A from Sf9 cells, Q9FN03 1-440 (natural protein)
chain: T1 chain

stoichiometry N [2]: 2
B2: UVR8^W285A overexpressed in uvr8-7/Pro35S:UVR8^W285A seedlings, Q9FN03 1-440 (natural protein)
chain: T1 chain

B3: UVR8^W285F overexpressed in uvr8-7/Pro35S:UVR8^W285F seedlings (natural protein)
chain: T1 chain with A285F
stoichiometry N (cross-linking): 2

binding result [3]: binds | binding result [4]: binds
B4: COP1 WD40 domain (COP1^349–675), recombinant from Sf9 cells (domain or fragment)
chain: TFTRYSRLRVIAEIRHGDIFHSANIVSSIEFDRDDELFATAGVSRCIKVFDFSSVVNEPADMQCPIVEMSTRSKLSCLSWNKHEKNHIASSDYEGIVTVWDVTTRQSLMEYEEHEKRAWSVDFSRTEPSMLVSGSDDCKVKVWCTRQEASVINIDMKANICCVKYNPGSSNYIAVGSADHHIHYYDLRNISQPLHVFSGHKKAVSYVKFLSNNELASASTDSTLRLWDVKDNLPVRTFRGHTNEKNFVGLTVNSEYLACGSETNEVYVYHKEITRPVTSHRFGSPDMDDAEEEAGSYFISAVCWKSDSPTMLTANSQGTIKVLVLAA
